# Data: paper PMC10127692
# Tests used:
# Experiment in all cases: two-hybrid
# [1] = biological target: BD-SUD2_(core) (SUD2-N+M, K412 to S675 of SARS-CoV-2 Nsp3, fused to the DNA binding domain) (SARS-CoV-2)
# [2] = biological target: SUD2-M (I549 to S675 of SARS-CoV-2 Nsp3), two-hybrid bait (SARS-CoV-2)
# [3] = biological target: SUD2-N (K412 to E548 of SARS-CoV-2 Nsp3), two-hybrid bait (SARS-CoV-2)
Substance,fold LacZ reporter induction against full-length SUD2 [1] [fold],LacZ reporter activity compared with SUD2-N+M [2] [%],LacZ reporter activity compared with SUD2-N+M [3] [%]
AD-Nsp5 (Nsp5 of SARS-CoV-2 fused to the activation domain) (from UniProt P0DTD1 3264-3569),2.1,,
AD-Nsp5 (Nsp5 of SARS-CoV-2 fused to the activation domain) (from UniProt P0DTD1 3264-3569) (enzyme),,86,47
